# Target: calmodulin immobilized on agarose beads (CaM-agarose) (UniProt P62157 1-149)
# Assay: pull-down
row,Binder,binding result
1,GST-fusion protein of TRPV1 amino acids 189–250 (domain or fragment) FVNASYTDSYYKGQTALHIAIERRNMTLVTLLVENGADVQAAANGDFFKKTKGRPGFYFGEL,binds
2,GST-fusion protein of TRPV1 amino acids 149–222 (domain or fragment) KDPETGKTCLLKAMLNLHNGQNDTIALLLDVARKTDSLKQFVNASYTDSYYKGQTALHIAIERRNMTLVTLLVE,binds
3,FVNASYTDSYYKGQTALHIAIERRNMTLVTLLVE (domain or fragment) [GST-fusion protein of TRPV1 amino acids 189–222],binds
